Experiment: label from the status in PepcDB records

Row | Sequence | protein production
1 | MLEKLLSAIKQKVSNYFLGVLPKSYSMSEENNILGLYDEHFLLTKNENLVGILRLEGVSYTHLSTEQLQDLFTERQMALDSLEKVVARLVVKRRKIDHQQNIQSDSQYLQAILNQFENKEVYENQYFLVLESTHSLHGVLEHKKKSLMHANRENFKDILSYKAHFLQETLKSLEIQLKNYAPKLLSSKEVLNFYAEYINGFDLPLKPLVGGYLSDSYIASSITFEKDYFIQESFNQKTYNRLIGIKAYESERITSIAIGALLYQETPLDIIFSIEPMSVHKTLSFLKERAKFSMSNLVKNELLEYQELVKTKRLSMQKFALNILIKAPSLENLDAQTSLVLGLLFKENLVGVIETFGLKGGYFSFFPERIHLNHRLRFLTSKALACLMVFERQNLGFKANSWGNSPLSVFKNLDYSPFLFNFHNQEVSHKNAKEIARVNGHTLIIGATGSGKSTLISFLMMSALKYQNMRLLAFDRMQGLYSFTKFFKGHYHDGQSFSINPFCLEPNLQNLEFLQSFFLSMFDLAPSRDKEALEDMNAISSAIKSLYETLYPKAFSLLDFKETLKRTSSNQLGLSLEPYLNNPLFNALNDAFNSNAFLNVINLDTITQNPKDLGLLAYYLFYKILEESRKNDSGFLVFLDEFKSYVENDLLNTKINALITQARKANGVVVLALQDIYQLSGVKNAHSFLSNMGTLILYPQKNARELKHNFNVPLSETEISFLENTPLYARQVLVKNLGNGSSNMIDVSLESLGRYLKIFNSDSSHVSKVKALQKDYPTEWREKLLRSLEHHHHHH | failed
2 | MKAKLENRLERQLQQLSYARGLILDEIGYLPMTSEEASLFFRLLNRRYEKASIILTSNKGFADWGEMFGDNVLATAILDRLLHHSTTLNIKGESYQLKEKRKVGALTKSATPISEDEMAESGQQK | failed
3 | MMWESESDGGVGVGGGGGREYGDGVLSSNKHGGVKTDGFELRGQSWFVATDIPSDLLVKIGDMNFHLHKYPLLSRSGKMNRLIYESRDPDPTILILDDLPGGPEAFELASKFCYGVPVDLTATNISGLRCAAEYLEMTEDLEEGNLIFKTEAFLSYVVLSSWRDSILVLKSCEKLSPWAENLQIVRRCSESIAWKACSNPKGIRWAYTGKAPSPSTTNFAGSSPRWNESKDSSFYCSPSRNTNSQPVPPDWWFEDVSILRIDHFVRVITAIKVKGMRFELLGAVIMHYAGKWLPGLIKEGGVAIAPAMSSAIGGGLGLGGDEMSISCGSNSSGGSSGPDWKGGLHMVLSAGKTNGHQDSVACLAGLGISPKDQRMIVESLISIIPPQKDSVTCSFLLRLLRAANMLKVAPALITELEKRVGMQFEQATLQDLLIPGYNNKGETMYDVDLVQRLLEHFLVQEQTEGSSPSRMSPSPSQSMYADIPRGNNNNGGGGGGNNQNAKMRVARLVDSYLTEVARDRNLPLTKFQVLAEALPESARTCDDGLYRAIDSYLKAHPTLSEHERKRLCRVMDCQKLSMDACMHAAQNERLPLRVVVQVLFSEQVKISNALANTSLKESTTLGEAMGTYQPMIPNRKTLIEATPQSFQEGWAAAKKDINTLKFELETVKTKYVELQNEMEVMQRQFEKTGKVKNTPSSSAWTSGWKKLSKLTKMSGQESHDISSGGEQAGVDHPPPRKPRRWRNSIS | failed
4 | MRNETLVSIIVPVYNSAQYLRKCIDSILAQSYTEFELLLINDGSEDHSGLICDDYAQSDNRIQVFHQENAGVSAARNLGLEKHTGEHFLFIDSDDYIQERYLEELMKYASCDFVQCSCCSEPVGNDYLFVDGNFEGSDEIKQCLLKYIYPEFTVPFGRLYKSSIQRKNKLFFDTYLYSGEDTLWVSQYLLCVHSLRVSSYIGYIYVHHVGEHLSQKSISYEHLEYTLHKLLISYSDLEKRYDFDLTGVRYSVIIYFFHRYIVYIANRNYTEIRKELEKSCANPLIKGVFYDKKYLLKGKKMKLFNWLVLHDMYSVLALYVKRWKRYLLEHHHHHH | not failed
5 | MPPMLSGLLARLVKLLLGRHGSALHWRAAGAATVLLVIVLLAGSYLAVLAERGAPGAQLITYPRALWWSVETATTVGYGDLYPVTLWGRLVAVVVMVAGITSFGLVTAALATWFVGREQERRGHFVRHSEKAAEEAYTRTTRALHERFDRLERMLDDNRR | failed
6 | MKLERQKLLAKVAYLYYMEGKSQSEIANELGIYRTTISRMLAKAREEGLVRIEISDFNPEIFQLESYFKSKYHLKDIEIVSSRKDSDTSEIEKDLAHVAAAMIRKKIKENDKVGIAWGRTLSKVVEAMRPHPVSQVSFVPLAGGPSHINARYHVNTLVYEMSRRFQGSCTFINATLVQENANLAKGILTSKYFEGLMDNWEKLDVAIVGVGGKPKSNEQQWLDLLNQDDFQCLDEEAAVGEITCRFFNHSGDPVNQHLAKRTIGITLEQLQKVPNRIAVAHGNYKAAALLAVLKKGYINHLVTDFSTALNILRLDKDTFVDTIYQKS | not failed
7 | LANRIENVVSQERTRKKFESLVSDSPDGIVHLTTNGTILSVNPSMAGRLGADPDTLVGQQLSAVMDSEAANQRLEAGKSAVENGTATRSEDAVGGRHYHNQYIPVDSHRKSDTFQLVSRDIT | not failed
8 | MNVKKNIALPAIMVGTFILEGVISLQFGNGLFNDKHLFIPHFLLVMLTIMTCFYKRNTTLVYAFILGLLFDIYYTGVMGIYFAIFPFTVYITDKFMKVLQNNIFLVGLITVFNIILTESLVYAFYYLIGSTTMTIPVFIDQRLWTTILFNLAFFLVIFFPFRLFLDRLVKSE | failed
9 | AHHDEVLDIPKGVEVYEIEGPFFFGIANRFEEIMNTLGDHPDVRIIRMRHVPFMDSTGMHNLENLIKMSRKEGVSIVLSGVRKDVHEELATAGIVELLGEENVCADIQAALRQAQAIAQGA | failed
10 | MSLKITKVEVIPISTPMKRAQLMRGATLARIDGVLLKLHSDEGLVGIADAGDTSSWYRGETQDSITSMICDFFAPKVLLGEDPTKIEKIVGRMDILTRDNNQAKATVDFALHDLVGKRFGVPVYQLLGGKTIERIPLGLVLGAGEPEAVAEEALAVLREGFHFVKLKAGGPLKADIAMVAEVRRAVGDDVDLFIDINGAWTYDQALTTIRALEKYNLSKIEQPLPAWDLDGMARLRGKVATPIYADESAQELHDLLAIINKGAADGLMIKTQKAGGLLKAQRWLTLARLANLPVICGCMVGSGLEASPAAHLLAANDWIAQFPQENAGPLHIHDCLNSRDIDNDIALNVPRFEGGYLYPNDGPGLGIELNEDLVRRLVTPGKAARVVTAEGHHHHHH | not failed
11 | MTTHHETYTAPPFGPALMLNAFAPSRGWNPKDGFPDFSFIWRGYQISPAALATLQRAAGRDDAATADRLILLAPHVTGFRLTMALLMCRDWPLPIWRALQLRNRLIRSGDIKLDAASDLIVRAIGWRVHDKGIELDVLAQLMQGGDCPWQSITTFYYRGRFDGPASHGADDGAPMASPPIDPSLPPMTQWTVDGGERLRWAALTGDYNPLHLVDIYARATGFAAASAHPQRIAAQCLGHLAPTPEHPTQLDLWLKGPVYFGRSASLREASNDDGTTFGLWIDGDDRPAMVGVMR | failed
12 | MTTLQLFESVNAFVWGPPLLALLVGTGIYLTIRLGLLQVVRLPLALRYVFGRDDEHHEEGDVSSFAALCTALAATIGTGNIVGVATAVAAGGPGALFWMWVAAFFGMATKYAEGLLAVKYRVTDANGQMSGGPMYYLERGLGSRMLARAFALCGILVAFFGIGTFAQVNAIKDAASLSLGIPPLATAVVLTTTVALVTLGGLRSIARVAEKVVPFMAVFYIIASCAVLVMHLDRIPDAVMVILHSAFNPQAALGGAAGMTVLTAMRAGVARGVFSNESGLGSAPIAAAAARTKSCVRQGLISMTGTFFDTIVICTMTGLVLVVTGVWNDPQLAGAAMTNAAFAAGLESSLGQYAATLGLILFAFTTILGWNYYGERCTEYLFGVRGILPYRLVFIGLVAAGAFVHLELIWVLADIVNGLMAIPNLIGLLGLSGVIIAETRAFFEADAPSVDAPCGSDADNASGACPRA | failed
13 | MDRLKAMQVFVEVADRGSLSAAAMHLGMSRAMVSRYLAELEAWVGVRLLHRTTRRLSLTPAGSETLPRCRRMLEMVGDMREAVAAPDAEPRGLLRVTAAMSFGGAQLAEAVAEFVRRHPAASIDLLLVDRAVNLVEERVDLAVRITNDLDPNLIGRRLADCRSVVCAAPQYLQQHGAPARAEDLSLHNCLTHSYFGRSLWRFERAGEPVEVPVGGNITANETDVLMRAALAGAGIVMLPTYLAAGQIAAGTLRPLLPDCAPPVLGIHGVYVSRKQMPLILRTMLDFLAERFNPAPWDAALEGR | failed
14 | MSYNLNLSHNIYKDAKLGTYYFRITYYDKSNTRKYITRKGFKQRKDAVKKCNEMMDELEGVGHLNRLPFDKLVEEYIDWYSARRKTSSVKALKTHTNNHLLPYFKSMDVFKMTTQDVMKFQNKKLKEGHSGDYLKKMHVYLVSLLNHAMKFHELKQNVASLVGNFEIESQKRLNYWTLEQFNQFYEALATQQQKLFFKLLFYSGARKGEIRALTWRDINFDDDFIHINKTDYHGEVTAPKTKSAIRDIYLPTHMMYDIKDYLIWYKENNIYKDDYVLFGTFYKAYSESTIDRWFTNALKVLDEQLPNGQNFPRIVIHELRHSHASMLVNLGASVMIIAQRLGHSDTTEVYNRYGHLYPSTQKEIVKYL | failed
15 | MSINIISIVSIIIWILLITELIKPSKEQNGRKIVTLVTAGSASTLILTVSFIQNIPFWN | failed
16 | FANTATVAVSQIVEHPALDATRQGLLDGLKAKGYEEGKNLEFDYKTAQGNPAIAVQIARQYVGESPDVLVGIATPSAQALVSATRTIPVVFTAVTDPVGAKLVKSMKQPGKNVTGLSDLSPVAQHVELIQEILPQVKSIGVVFNPGEANAVTLVNLLKESAEAKGIKVVEATALKSADVQSATQAIAAKSDILYAPTDNTVASAIEGMIVAANQAKKPVFGGATSYVEKGAIAGLGFDYYQVGVQTADYVAAILDGQEPGKLDVKVATGSDLVINESAASKLGIQLPSSVVQRATSMQ | failed
17 | MTIHKKGQAHWEGDIKRGKGTVSTESGVLNQQPYGFNTRFEGEKGTNPEELIGAAHAACFSMALSLMLGEAGFTPTSIDTTADVSLDKVDAGFAITKIALKSEVAVPGIDASTFDGIIQKAKAGCPVSQVLKAEITLDYQLKS | not failed
18 | MPNQPVTVESFMPVEGKLREKVIVKGSNFGTDKSKVKVYFVDEAAERLSTVIGIDNNTLYCLAPRQLPGGNRIKVIVDGKEVTTDGTFKYEQAQNVSTISGSASKDGNDDGDLASAKFKYMWGIAAVGNNTVLAYQRDDPRVRLISVDDNKVTTVHPGFKGGKPAVTKDKQRVYSIGWEGTHTVYVYMKASGWAPTRIGQLGSTFSGKIGAVALDETEEWLYFVDSNKNFGRFNVKTQEVTLIKQLELSGSLGTNPGPYLIYYFVDSNFYMSDQNLSSVYKITPDGECEWFCGSATQKTVQDGLREEALFAQPNGMTVDEDGNFYIVDGFKGYCLRKLDILDGYVSTVAGQVDVASQIDGTPLEATFNYPYDICYDGEGGYWIAEAWGKAIRKYAVELEHHHHHH | not failed
19 | MSCVDKGFSPYISLLISGLTVVFDQVIKWQTQQSIAYGDSISLTPFFNWVHTWNTGAAFGLLSNGGGWQRYFFIGVALLMSVALTRLIFNKVSKRDGISYGLILGGAVGNLIDRLFRGYVVDSLHLGWQTWQLPVFNIADIAITLGVILLLLSNLQVSMIPNLPGSK | failed
20 | MNLAYETQSIAERREQLREEGKIELPLNVDTRKYLLSFIRYRDVLISLPLLIAGIVALYIIHRTGIGINSQNVIVCFAPWATFLLLLTIQHPDRKNISFFEHRIVWRIKYNNRQKLFVYTKGDLMGNKKEKDVREQLGISNIYSDCYETTDKRLVKVIKVSSINLSLLNNKEKRMIFQAYETFLNDLPKNLTLQISQIAQPVNLKNYFLFIQEKTSREQDMAKKLLAKGYLDFIDDIQKSKNMVSRNRYVIISKPFTAQNRESVLEELDRQAKILVSQIENMLGGRFQLKAEILNNEELFHLIYTCVDYENAQVNAEIKTSTFPITLGKETYIEMKKRWEKEVTEKII | failed
21 | MDLESVKKYLEGDEDEKAKEPMVAKLPHRFLERFVTNGLKVDLIEPGRIVCSMKIPPHLLNAGKFLHGGATATLVDLIGSAVIYTAGASHSGVSVEINVSYLDAAFLDEEIEIESKALRVGKAVAVVSVELRKKTTGKIIAQGRHTKYFAPRSNL | failed

From a protein production outcome set (Wang et al. 2014)
